Measured values reported in PMC3591319 (PLoS Pathogens, 2013).

Tests used:
[1] = biological target: gp140-92UG037 (recombinant Env gp140 of HIV-1 strain 92UG037) (HIV-1 clade A (92UG037))
[2] = biological target: gp140-92UG037 (recombinant Env gp140 of HIV-1 strain 92UG037) (HIV-1 clade A (92UG037)); test: SPR; Biacore T100; gp140-92UG037 immobilised on CM-5; single concentration injections of 100 nM VHH for 60 s; two-state reaction fit
[3] = biological target: gp140-92UG037 (recombinant Env gp140 of HIV-1 strain 92UG037) (HIV-1 clade A (92UG037)); test: SPR; Biacore T100; gp140-92UG037 immobilised to 1500 RU on CM-5; VHH injected at 6.25, 25, 100 and 400 nM for 60 s; 10 mM HEPES, 150 mM NaCl, pH 7.4, 0.005% Tween-20; two-state reaction fit (2H10), heterogeneous ligand and two-state fits (bi-2H10)
[4] = biological target: gp41INT (soluble form of the fusion intermediate conformation of gp41) (not stated | HIV-1); test: SPR; Biacore 3000; gp41INT or gp41 528-683 immobilised to 1000 RU on CM-5; VHH injected 1 to 200 nM for 150 s; 10 mM HEPES, 150 mM NaCl, pH 7.4, 50 uM EDTA, 0.005% P-20; 1:1 Langmuir fit, or separate association and dissociation fits for 2H10 and 2H10-W100A on gp41INT
[5] = biological target: gp140-92UG037 (recombinant Env gp140 of HIV-1 strain 92UG037) (HIV-1 clade A (92UG037)); test: SPR
[6] = biological target: gp41 528-683 (potential late fusion intermediate conformation of gp41) (HIV-1) (UniProt P04578); test: SPR; Biacore 3000; […]; 10 mM HEPES, 150 mM NaCl, […]; 1:1 Langmuir fit, […]
[7] = biological target: T1, linear gp41 MPER peptide 655KNEQELLELDKWASL669 (HIV-1 clade B (HXB2 sequence)); test: ITC; 25 C; 10 uM 2H10 in the cell, about 100 uM peptide in the syringe; 20 mM HEPES pH 7.4, 100 mM NaCl; single binding site model; conditions: both partners purified
T1 chain: KNEQELLELDKWASL

[8] = biological target: T2, gp41CHRTM (HIV-1 gp41 C-terminal heptad repeat, MPER and transmembrane regions) (HIV-1 clade B (HXB2), UniProt P04578); test: ELISA; conditions: both partners purified
T2 construct: also called gp41 proteoliposomes; gp41CHRTM proteoliposomes

2H10 (llama anti-gp41 MPER VHH, monovalent, myc/His-tagged)
IC50 of neutralisation of HIV-1 92UG037.A9 (molecular clone) in TZM-bl cells [1]: > 50 µg/mL | IC50 of neutralisation of pseudovirus 92UG0378 in TZM-bl cells [1]: > 50 µg/mL | Kd [2]: 8 nM | Kd [3]: 4 nM | Kd [4]: 29 nM

2H10-R71S (VHH)
Kd [5]: 18.7 nM

2H10-S29F (VHH)
Kd [5]: 5.5 nM

2H10-W100A (VHH)
Kd [5]: 10.1 nM

bi-2H10 with 15GS linker (bivalent 2H10) (VHH)
IC50 of neutralisation of HIV-1 92UG037.A9 (molecular clone) in TZM-bl cells [1]: 2.4 µg/mL | IC50 of neutralisation of pseudovirus 92UG0378 in TZM-bl cells [1]: 4.66 µg/mL | Kd [6]: 1.1 nM | Kd [3]: 0.15 nM | Kd [4]: 2.5 nM

bi-2H10 with 17GS linker (bivalent 2H10) (VHH)
IC50 of neutralisation of HIV-1 92UG037.A9 (molecular clone) in TZM-bl cells [1]: 28 µg/mL

B1: 2H10 (VHH without 6his-tag or myc tag) (VHH)
VHH: EVQLVESGGGLVQPGGSLRLSCAASGSISSVDVMSWYRQAPGKQRELVAFITDRGRTNYKVSVKGRFTISRDNSKNMVYLQMNSLKPEDTADYLCRAESRTSWSSPSPLDVWGRGTQVTVSS
Kd [7]: 35 nM

B2: 2H10 (llama anti-gp41 MPER VHH, monovalent, myc/His-tagged) (VHH)
VHH: EVQLVESGGGLVQPGGSLRLSCAASGSISSVDVMSWYRQAPGKQRELVAFITDRGRTNYKVSVKGRFTISRDNSKNMVYLQMNSLKPEDTADYLCRAESRTSWSSPSPLDVWGRGTQVTVSS
notes: also called 2H10 monohead; VHH 2H10
binding result [8]: binds
